From US20240043508A1 (KOOKMIN UNIVERSITY INDUSTRY ACADEMY COOPERATION FOUNDATION, published 2024) come the findings set out here.

Usually IC50 stands for the midpoint of a concentration-inhibition curve. Low values mean inhibition by little substance, high ones a need for much substance. Broadly, the Kd is the free concentration of one partner at which half of the binding sites on the other are occupied at equilibrium, for simple one-to-one binding. A higher Kd goes with a looser complex. By kon is commonly meant the rate constant with which the complex forms. A higher kon goes with faster complex formation. By EC50 (read off the curve) is commonly meant the concentration at which the effect is half-maximal.

Read-outs that look alike come from different tables or passages of the source.

Test [1] concerns the target T1, SARS-CoV-2 S protein of the wild-type, on pseudotyped lentiviral particles (SARS-CoV-2). The experiment in a line: cell-based or functional assay.
The next test has as its target SARS-CoV RBD (SARS-CoV, UniProt P59594 306-527). The experiment in a line: ELISA, 0.1 ug antigen coated. On the technique in general: In an ELISA, binding on a coated surface is turned into a signal by an enzyme label.
In test [2] the target is T1, SARS-CoV-2 S protein of the wild-type, …. The experiment in a line: cell-based or functional assay. The source holds these as a separate data set.
Test [3] addresses T2, SARS-CoV-2 RBD (wild-type) (SARS-CoV-2, UniProt P0DTC2 319-541). The experiment in a line: competition ELISA: RBD-His with antibody, binding to coated hACE2-Fc.
Test [4] has as its target T2, SARS-CoV-2 RBD (wild-type). As to the kind of experiment: SPR, RBD immobilised, 1:1 model. (Surface plasmon resonance follows binding to a sensor surface in real time, without labels.)
Test [5] has as its target T2, SARS-CoV-2 RBD (wild-type). As to the kind of experiment: SPR (FIG. 24).
Test [6] deals with SARS-CoV-2 RBD protein (Fc-tagged) (SARS-CoV-2, UniProt P0DTC2 319-541).
For test [7], the target named is T2, SARS-CoV-2 RBD (wild-type).
In the next test the target is SARS-CoV-2 S1 domain (SARS-CoV-2, UniProt P0DTC2 14-685). As to the kind of experiment: ELISA: IgG titrated on plate-bound S1, absorbance at 450 nm.
For test [8], the target named is T2, SARS-CoV-2 RBD (wild-type). As to the kind of experiment: SPR, RBD immobilised.
The target in test [9] is T2, SARS-CoV-2 RBD (wild-type). The source holds these as a separate data set.
In test [10] the target is T2, SARS-CoV-2 RBD (wild-type). As to the kind of experiment: ELISA, antigen coated, antibody titrated, A450.

B1: RD3 (antibody, V domains shown)
VH: EVQLLESGGGLVQPGGSLRLSCAASGFTFSDYAMSWVRQAPGKGLEWVSWIYSGSGNKYYADSVKGRFTISRDNSKNTLYLQMNSLRAEDTAVYYCARFPIARTSNSQSSYDGMDVWGQGTLVTVSS
VL: QSVLTQPPSASGTPGQRVTISCSGSSSNIGSNAVSWYQQLPGTAPKLLIYADNKRPSGVPDRFSGSKSGTSASLAISGLRSEDEADYYCGAWDSSLNAYVFGGGTKLTVL
notes: also called K102.1
On to B1, for which, in test [1], the “IC50 (nM), pseudovirus neutralization, luciferase in 293T/hACE2 cells” value amounted to 1.94 nM. Besides, in the test with SARS-CoV RBD, the binding result is reported as “binds”. Also, in [2], the “IC50 (nM), pseudotyped virus infection” value was 1.94 nM.

B2: RB6 (antibody, V domains shown)
VH: EVQLLESGGGLVQPGGSLRLSCAASGFTFSSYDMSWVRQAPGKGLEWVSGISYSGGSTYYADSVKGRFTISRDNSKNTLYLQMNSLRAEDTAVYYCARDVNFVPLVTFDYWGQGTLVTVSS
VL: QSVLTQPPSASGTPGQRVTLSCTGSSSNIGSNSVTWYQQLPGTAPKLLIYDDNQRPSGVPDRFSGSKSGTSASLAISGLRSEDEADYYCGTWDYSLSAYVFGGGTKLTVL
notes: also called K102.2
As to B2, in the test with SARS-CoV RBD, the binding result is recorded as “binds”. In addition, the IC50 in test [3] came out at 4.94 nM; in test [6] it was 1.95 nM. Also, the Kd in test [4] was 2.2 nM; in test [5] it was 2.46 nM; in test [7] it was 0.716 nM; in the test with SARS-CoV-2 S1 domain, 3.2 nM; in [8], 2.2 nM. The on-rate constant (kon) in test [4] and in test [8] was 197000 M⁻¹ s⁻¹ throughout. Besides, the “fold affinity against K102.3” value in test [5] is ~5 fold.

B3: RG6 (antibody, V domains shown)
VH: EVQLLESGGGLVQPGGSLRLSCAASGFTFSDYSMSWVRQAPGKGLEWVSGIYHSDGSKYYADSVKGRFTISRDNSKNTLYLQMNSLRAEDTAVYYCARFDPVFDYWGQGTLVTVSS
VL: QSVLTQPPSASGTPGQRVTISCTGSSSNIGSNAVNWYQQLPGTAPKLLIYADSNRPSGVPDRFSGSKSGTSASLAISGLRSEDEADYYCGAWDASLSAYVFGGGTKLTVL
Turning to B3, the figures for the Kd (in [7]; with SARS-CoV-2 S1 domain) were 0.481 nM and 0.22 nM, respectively.

B4: HA-tagged K102.2 (K102.2-HA) (antibody, V domains shown)
VH: EVQLLESGGGLVQPGGSLRLSCAASGFTFSSYDMSWVRQAPGKGLEWVSGISYSGGSTYYADSVKGRFTISRDNSKNTLYLQMNSLRAEDTAVYYCARDVNFVPLVTFDYWGQGTLVTVSS
VL: QSVLTQPPSASGTPGQRVTLSCTGSSSNIGSNSVTWYQQLPGTAPKLLIYDDNQRPSGVPDRFSGSKSGTSASLAISGLRSEDEADYYCGTWDYSLSAYVFGGGTKLTVL
In the case of B4, the “EC50 (read off the curve)” value in test [9] is ~0.05 µg/mL.

B5: RD10 (antibody, V domains shown)
VH: EVQLLESGGGLVQPGGSLRLSCAASGFTFSDYAMSWVRQAPGKGLEWVSAIYPGGGSTYYADSVKGRFTISRDNSKNTLYLQMNSLRAEDTAVYYCARNLFGFDYWGQGTLVTVSS
VL: QSVLTQPPSASGTPGQRVTISCTGSSSNIGSNAVYWYQQLPGTAPKLLIYDDSNRPSGVPDRFSGSKSGTSASLAISGLRSEDEADYYCGSWDDSLSAYVFGGGTKLTVL
B5 gave an IC50 in [6] of 1.97 nM. Besides, the Kd in [10] was ~0.1 nM; in [7], 0.55 nM; in the test with SARS-CoV-2 S1 domain, 0.317 nM.

B6: RB4 (antibody, V domains shown)
VH: EVQLLESGGGLVQPGGSLRLSCAASGFTFSDYSMSWVRQAPGKGLEWVSGIYHSDGSKYYADSVKGRFTISRDNSKNTLYLQMNSLRAEDTAVYYCARFDPVFDYWGQGTLVTVSS
VL: QSVLTQPPSASGTPGQRVTISCSGSSSNIGSNAVSWYQQLPGTAPKLLIYDNNHRPSGVPDRFSGSKSGTSASLAISGLRSEDEADYYCGSWDDSLNAYVFGGGTKLTVL
In the case of B6, the half-maximal inhibitory concentration (IC50) in test [6] came out at 0.841 nM. Besides, the values for the dissociation constant Kd (in test [7]; with SARS-CoV-2 S1 domain) were 0.186 nM and 0.169 nM, respectively.
